Results as given in patent US20150011431A1 (Scripps Research, published 2015).
Substitutions are numbered along the chain they refer to. Names and notes keep the numbering of the source.

B1: BLV1H12 IgG (antibody)
VH: QVQLRESGPSLVKPSQTLSLTCTASGFSLSDKAVGWVRQAPGKALEWLGSIDTGGNTGYNPGLKSRLSITKDNSKSQVSLSVSSVTTEDSATYYCTSVHQETKKYQSCPDGYRERSDCSNRPACGTSDCCRVSVFGNCLTTLPVSYSYTYNYEWHVDVWGQGLLVTVSS
light: not shown
notes: also called ULcowV
B2: IgG with VH4-4+CDR3-IL8 (antibody)
VH: QVQLQESGPGLVKPSETLSLTCTVSGGSISSYYWSWIRQPAGKGLEWIGRIYTSGSTNYNPSLKSRVTMSVDTSKNQFSLKLSSVTAADTAVYYCTSVHQETKKYQSPRSAKELRCQCIKTYSKPFHPKFIKELRVIESGPHCANTEIIVKLSDGRELCLDPKENWVQRVVEKFLKRAENSGSGSYTYNYEWHVDVWGQGLLVTVSSAS
light: not shown
notes: IgG; VH cloned before human IgG1 CH1-CH2-CH3 in HC pFuse; also called VH4-4 BLVCDR3IL8
B3: IgG with VH1-24+CDR3-IL8 (antibody)
VH: QVQLVQSGAEVKKPGASVKVSCKVSGYTLTELSMHWVRQAPGKGLEWMGGFDPEDGETIYAQKFQGRVTMTEDTSTDTAYMELSSLRSEDTAVYYCTSVHQETKKYQSPRSAKELRCQCIKTYSKPFHPKFIKELRVIESGPHCANTEIIVKLSDGRELCLDPKENWVQRVVEKFLKRAENSGSGSYTYNYEWHVDVWGQGLLVTVSSAS
light: not shown
notes: IgG; VH cloned before human IgG1 CH1-CH2-CH3 in HC pFuse; cell culture supernatant; also called VH1-24 BLVCDR3IL8
B4: IgG with VH4-34+CDR3-IL8 (antibody)
VH: QVQLQQWGAGLLKPSETLSLTCAVYGGSFSGYYWSWIRQPPGKGLEWIGEINHSGSTNYNPSLKSRVTISVDTSKNQFSLKLSSVTAADTAVYYCTSVHQETKKYQSPRSAKELRCQCIKTYSKPFHPKFIKELRVIESGPHCANTEIIVKLSDGRELCLDPKENWVQRVVEKFLKRAENSGSGSYTYNYEWHVDVWGQGLLVTVSSAS
light: not shown
notes: IgG; VH cloned before human IgG1 CH1-CH2-CH3 in HC pFuse; cell culture supernatant; also called VH4-34 BLVCDR3IL8
B5: IgG with VH1-46+CDR3-IL8 (antibody)
VH: QVQLVQSGAEVKKPGASVKVSCKASGYTFTSYYMHWVRQAPGQGLEWMGIINPSGGSTSYAQKFQGRVTMTRDTSTSTVYMELSSLRSEDTAVYYCTSVHQETKKYQSPRSAKELRCQCIKTYSKPFHPKFIKELRVIESGPHCANTEIIVKLSDGRELCLDPKENWVQRVVEKFLKRAENSGSGSYTYNYEWHVDVWGQGLLVTVSSAS
light: not shown
notes: IgG; VH cloned before human IgG1 CH1-CH2-CH3 in HC pFuse; cell culture supernatant; also called VH1-46 BLVCDR3IL8
B6: IgG with VH1-69+CDR3-IL8 (antibody)
VH: QVQLVQSGAEVKKPGSSVKVSCKASGGTFSSYAISWVRQAPGQGLEWMGGIIPIFGTANYAQKFQGRVTITADKSTSTAYMELSSLRSEDTAVYYCTSVHQETKKYQSPRSAKELRCQCIKTYSKPFHPKFIKELRVIESGPHCANTEIIVKLSDGRELCLDPKENWVQRVVEKFLKRAENSGSGSYTYNYEWHVDVWGQGLLVTVSSAS
light: not shown
notes: IgG; VH cloned before human IgG1 CH1-CH2-CH3 in HC pFuse; cell culture supernatant; also called VH1-69 BLVCDR3IL8
B7: IgG with VH4-34+CDR3-IL8_CDR1 G31D, Y32K and BLV1H12 light chain (antibody)
VH: B4 VH with G31D, Y32K
VL: QAVLNQPSSVSGSLGQRVSITCSGSSSNVGNGYVSWYQLIPGSAPRTLIYGDTSRASGVPDRFSGSRSGNTATLTISSLQAEDEADYFCASAEDSSSNAVFGSGTTLTVLGQPKSPPSVTLFPPSTEELNGNKATLVCLISDFYPGSVTVVWKADGSTITRNVETTRASKQSNSKYAASSYLSLTSSDWKSKGSYSCEVTHEGSTVTKTVKPSECS
notes: IgG, human IgG1 CH1-CH2-CH3; also called VH4-34 + CDR3-IL8 + E31D, Y32K
B8: IgG with VH4-34+CDR3-IL8_CDR2 Cow and BLV1H12 light chain (antibody)
VH: B4 VH with I48L, E50S, N52D, H53T, S54G, S56N, N58G
VL: B7 VL
notes: IgG, human IgG1 CH1-CH2-CH3; also called VH4-34 + CDR3-IL8 + Cow CDR2
B9: IgG with VH4-34+CDR3-IL8_CDR2 E50S and BLV1H12 light chain (antibody)
VH: B4 VH with E50S
VL: B7 VL
notes: IgG, human IgG1 CH1-CH2-CH3; also called VH4-34 + CDR3-IL8 + E50S
B10: IgG with VH4-34+CDR3-IL8_CDR1 Cow and BLV1H12 light chain (antibody)
VH: B4 VH with A23T, V24A, Y25S, G27F, F29L, G31D, Y32K, Y33A, W34V, S35G
VL: B7 VL
notes: IgG, human IgG1 CH1-CH2-CH3; also called VH4-34 + CDR3-IL8 + Cow CDR1
B11: IgG with VH4-34+CDR3-IL8_CDR1 Cow and light chain V1-51 S2A, T5N, P8S, A12G, A13S, P14L & DNN to GDT (antibody)
heavy: not shown
light: QAVLNQPSSVSGSLGQKVTISCSGSSSNIGNNYVSWYQQLPGTAPKLLIYGDTKRPSGIPDRFSGSKSGTSATLGITGLQTGDEADYYCASAEDSSSNAVFGSGTTLTVLGQPKAAPSVTLFPPSSEELQANKATLVCLISDFYPGAVTVAWKADSSPVKAGVETTTPSKQSNNKYAASSYLSLTPEQWKSHRSYSCQVTHEGSTVEKTVAPTECS
notes: IgG, human IgG1 CH1-CH2-CH3; normalized to 10 nM; also called VH4-34 CDR3-IL8 CDR1-Cow / V1-51 S2A, T5N, P8S, A12G, A13S, P14L & DNN to GDT
B12: IgG with VH4-34+CDR3-IL8_CDR1 Cow CDR2 Cow and light chain V1-51 CDR1 I29V, N32G (antibody)
heavy: not shown
light: QSVLTQPPSVSAAPGQKVTISCSGSSSNVGNGYVSWYQQLPGTAPKLLIYDNNKRPSGIPDRFSGSKSGTSATLGITGLQTGDEADYYCASAEDSSSNAVFGSGTTLTVLGQPKAAPSVTLFPPSSEELQANKATLVCLISDFYPGAVTVAWKADSSPVKAGVETTTPSKQSNNKYAASSYLSLTPEQWKSHRSYSCQVTHEGSTVEKTVAPTECS
notes: IgG, human IgG1 CH1-CH2-CH3; normalized to 10 nM; also called VH4-34 CDR3-IL8 CDR1-Cow & CDR2-Cow / V1-51 CDR1 I29V, N32G
B13: IgG with VH4-34+CDR3-IL8_CDR1 Cow CDR2 Cow and light chain V1-51 S2A, T5N, P8S, A12G, A13S, P14L (antibody)
heavy: not shown
light: B11 light with G51D, D52N, T53N
notes: IgG, human IgG1 CH1-CH2-CH3; normalized to 10 nM; also called VH4-34 CDR3-IL8 CDR1-Cow & CDR2-Cow / V1-51 S2A, T5N, P8S, A12G, A13S, P14L
B14: IgG with VH4-34+CDR3-IL8_CDR1 Cow CDR2 Cow and light chain V1-51 CDR2 DNN to GDT (antibody)
heavy: not shown
light: B12 light with V29I, G32N, D51G, N52D, N53T
notes: IgG, human IgG1 CH1-CH2-CH3; normalized to 10 nM; also called VH4-34 CDR3-IL8 CDR1-Cow & CDR2-Cow / V1-51 CDR2 DNN to GDT
B15: IgG with VH4-34+CDR3-IL8_CDR1 Cow and light chain V1-51 CDR2 DNNKRP to GDTSRA (antibody)
heavy: not shown
light: B12 light with V29I, G32N, D51G, N52D, N53T, K54S, P56A
notes: IgG, human IgG1 CH1-CH2-CH3; normalized to 10 nM; Only 'DNN (amino acids 51-53)' is printed; positions 54 and 56 are counted on from it
B16: IgG with VH4-34+CDR3-IL8_CDR1 Cow and light chain V1-51 CDR1 I29V, N32G (antibody)
heavy: not shown
light: B12 light
notes: IgG, human IgG1 CH1-CH2-CH3; normalized to 10 nM; also called VH4-34 CDR3-IL8 CDR1-Cow / V1-51 CDR1 I29V, N32G
B17: IgG with VH4-34+CDR3-IL8_CDR1 Cow CDR2 Cow and light chain V1-51 CDR2 DNNKRP to GDTSRA (antibody)
heavy: not shown
light: B12 light with V29I, G32N, D51G, N52D, N53T, K54S, P56A
notes: IgG, human IgG1 CH1-CH2-CH3; normalized to 10 nM

The binders below were run against T1, CXCR1 (UniProt P25024 1-350, limits assumed) (assay: flow cytometry, IgG-containing supernatant on CXCR1-U2OS cells, fluorescent anti-human Fc).
T1 construct: whole, on cells; DiscoveRx cells engineered with a luminescent reporter enzyme for beta-arrestin recruitment; also called CXCR1-U2OS; U2OS-CXCR1
T1 sequence (looked up): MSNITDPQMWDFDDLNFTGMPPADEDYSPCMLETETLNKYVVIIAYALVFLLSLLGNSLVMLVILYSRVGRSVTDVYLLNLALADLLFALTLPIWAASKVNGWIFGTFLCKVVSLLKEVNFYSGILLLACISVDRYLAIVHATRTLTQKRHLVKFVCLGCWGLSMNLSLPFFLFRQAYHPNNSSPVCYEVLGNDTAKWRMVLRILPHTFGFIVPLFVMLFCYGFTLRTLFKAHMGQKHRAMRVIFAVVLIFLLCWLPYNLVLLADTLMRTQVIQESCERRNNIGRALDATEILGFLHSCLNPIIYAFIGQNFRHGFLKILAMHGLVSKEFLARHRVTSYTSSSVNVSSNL
Method: (§1) In an exemplary method, BLV1H12 IgG comprising a CDR3 with an IL-8 insert (e.g., the IL-8 sequence replaced a portion of the CDR3) was evaluated for binding to CXCR1 expressing cells by flow cytometry. Briefly, a cell line expressing functionally validated CXCR1 derived from U2OS cells was obtained from DiscoveRx and cultured per manufacturer's instructions (Cat#93-0226C3, DiscoveRx Corporation, Freemont, Calif.). The parental cell line U2OS was obtained from ATCC and cultured under the same conditions as the CXCR1 cells. Cell culture supernatants were then tested for binding to cells by flow cytometry. The adherent U2OS or CXCR1-U2OS cells were dissociated with Accutase (Innovative Cell Technologies, Inc., San Diego, Calif.), neutralized with an equal volume of media containing 10% serum, centrifuged at 1000 g, and resuspended in PBS with 2% BSA. Next, cells were dispensed into microtiter plates to achieve between 30,000 to 300,000 cells per well, centrifuged again, and resuspended in cell culture supernatant containing expressed IgG, or a dilution of IgG-containing cell culture supernatant. A fluorescent-conjugated anti-Human Fc antibody was used to detect binding of the expressed antibody to cells.
(§2) Additionally, the human germline CDR3-IL8 IgGs described in Example 5 were evaluated for binding to CXCR1 expressing cells by flow cytometry as described above. IgG binding to CXCR1-U2OS cells is indicated by higher fluorescence values, but non-specific binding to U2OS parental cells is also detectable.

Row | Binder | median fluorescence on CXCR1-U2OS [AFU]
1 | B1 | 9
2 | B2 | 3080
3 | B3 | 23
4 | B4 | 648
5 | B5 | 6
6 | B6 | 78

What follows are binders tested against T1, CXCR1 (assay: flow cytometry; fluorescence on CXCR1-U2OS cells over fluorescence on parental U2OS cells).
Method: as §1, §2

Row | Binder | Ratio of CXCR1/Parental
7 | B1 | 1.9
8 | B2 | 3.1
9 | B3 | 4.3
10 | B4 | 9.3
11 | B5 | 1.1
12 | B6 | 4

Target: T1, CXCR1
Experiment: as above
Remark: another data set of the same source
Method: as §1
In an exemplary method, certain residues in VH4-34 CDR1 and/or CDR2 were substituted with corresponding CDR1 and/or CDR2 residues from BLV1H12. Briefly, the pFuse vector encoding heavy chain VH4-34 CDR3-IL8 was modified by overlap PCR to replace all of CDR1 with sequence from BLV1H12 (VH4-34+CDR3-IL8_CDR1 Cow, SEQ ID NO: 432) or all of CDR2 with sequence from BLV1 H12 (VH4-34+CDR3-IL8_CDR2 Cow, SEQ ID NO: 433).

Row | Binder | FACS CXCR1/Parental Ratio
13 | B1 | 1.9
14 | B4 | 9.3
15 | B7 | 8.1
16 | B8 | 8
17 | B9 | 4
18 | B10 | 2.1

Each binder was assayed against T1, CXCR1 (assay: flow cytometry with 2 ug/ml heparin sulfate, IgG normalized to 10 nM; CXCR1-U2OS against parental U2OS cells).
Method: Cell culture supernatants were then tested for binding to cells by flow cytometry. The adherent U2OS or CXCR1-U2OS cells were dissociated with Accutase (Innovative Cell Technologies, Inc., San Diego, Calif.), neutralized with an equal volume of media containing 10% serum, centrifuged at 1000 g, and resuspended in PBS with 2% BSA. Next, cells were dispensed into microtiter plates to achieve between 30,000 to 300,000 cells per well, centrifuged again, and resuspended in cell culture supernatant containing expressed IgG, or a dilution of IgG-containing cell culture supernatant. A fluorescent-conjugated anti-Human Fc antibody was used to detect binding of the expressed antibody to cells.
In an exemplary method, variants of V1-51 were made by overlap PCR and subcloned into pFuse vector for expression as described in Example 4. […] These V1-51 variants were paired with heavy chains encoding VH4-34+CDR3-IL8 (SEQ ID NO: 430), VH4-34+CDR3-IL8_CDR1 Cow (SEQ ID NO: 432), VH4-34+CDR3-IL8_CDR2 Cow (SEQ ID NO: 433), or VH4-34+CDR3-IL8_CDR1 Cow CDR2 Cow, (SEQ ID NO: 436). Transfections and ELISA were carried out as described above, and flow cytometry was used to evaluate CXCR1 binding specificity as previously described, with the modification that cells were resuspended in 2% BSA in PBS plus 2 ug/ml Heparin sulfate, and IgGs were normalized to 10 nM during incubation on cells.

Row | Binder | CXCR1 specificity
19 | B11 | 6.8
20 | B12 | 11.8
21 | B13 | 12.2
22 | B14 | 16.7
23 | B15 | 8
24 | B16 | 8.9
25 | B17 | 6.9
